Test results reported in patent US9096832B2, “Differentiation of human embryonic stem cells” (LifeScan, Inc., priority 2007, dated 2015).

Experiments:
H9P55 cells = assay: Definitive endoderm on human fibronectin or […] (FACS, real-time PCR); assay type: cell-based; details: fibronectin vs MATRIGEL coated plates
Method: H9P55 cells were grown and differentiated on human fibronectin or regular growth factor […]™ (BD Biosciences). 1 ml of DMEM/F12 (Invitrogen/GIBCO) containing 1 ug/ml of human fibronectin (R&D systems, MN) was added to each well of 6 well tissue culture treated dish. Alternatively, regular growth factor […]™ was diluted 1:10 in DMEM/F12 and 1 ml of diluted […]™ was added to each well of 6 well tissue culture treated dish. Cells were passed with collagenase. […] Real-time PCR results (FIG. 39) confirm that formation of definitive endoderm was equivalent on fibronectin and […]™ coated plates.

[1] = tested on: H9P53 embryonic stem cells; assay: Definitive endoderm on […]: combination of Wnt-3a, GSK-3B inhibitor, BMP-4; assay type: cell-based, human; details: 25 ng/ml BMP-4 added to the DE protocol
From the text: Results are expressed as fold increase over untreated cells. […] Results are expressed as fold increase over untreated cells.

H9 cells = assay: Definitive endoderm after treatment with Wnt inhibitor DKK-1 (real-time PCR); assay type: cell-based, human; details: 100 ng/ml DKK1 with 20 ng/ml Wnt3a and 100 ng/ml activin A
Method: To determine if the addition of Wnt-3a was causing the increase in differentiation, an inhibitor of Wnt-3 signaling was added to the cultures. […] H9 cells were cultured on plates coated with Growth Factor Reduced […] at a 1:30 dilution. The plates were coated with […] for 1 hr at room temperature.
At day 5, the cultures were analyzed by real time PCR for SOX-17, SOX-7, Alpha-fetal protein (AFP), CXCR4, Brychyury (Bry), gooscecoid (GSC), HNF-3 beta, GATA4, hTERT and Oct4. AFP and SOX-7 are regarded as visceral endoderm markers while GATA4, HNF-3beta and SOX-17 represent definite endoderm markers and GSC, Bry, and CXCR4 represent markers of primitive streak. hTERT and Oct-4 are markers for self renewal and pluripotency respectively.

H1P55 ES cells = assay: Definitive endoderm on […]: role of Wnt1 (real-time PCR); assay type: cell-based, human; details: 20 ng/ml Wnt1 in the presence of 100 ng/ml AA
Method: The following combinations of WNT1+AA were tested:
a) 20 ng/ml of WNT1+100 ng/ml AA in 0.5% FBS+DM-F12 for days 1-2 followed by 2% FBS+DM-F12+100 ng/ml AA for day three, b) 20 ng/ml of WNT1+100 ng/ml AA in 0.5% FBS+DM-F12 for days 1-2 followed by 2% FBS+DM-F12+100 ng/ml AA for days 3-5, c) 10 ng/ml of WNT1+100 ng/ml AA in 0.5% FBS+DM-F12 for days 1-2 followed by 2% FBS+DMF12+100 ng/ml AA for day three, d) 10 ng/ml of WNT1+100 ng/ml AA in 0.5% FBS+DM-F12 for days 1-2 followed by 2% FBS+DM-F12+100 ng/ml AA for days 3-5, e) 20 ng/ml of WNT1+100 ng/ml AA in 0.5% FBS+DM-F12 for days 1-2 followed by 2% FBS+DM-F12+100 ng/ml AA+20 ng/ml of WNT1 for day three, f) 20 ng/ml of WNT1+100 ng/ml AA in 0.5% FBS+DM-F12 for days 1-2 followed by 2% FBS+DM-F12+100 ng/ml AA+20 ng/ml of WNT1 for days 3-5.

fibronectin
formation of definitive endoderm (real-time PCR) (H9P55 cells): equivalent

B1: BMP-4: BMP-4 (Catalog#314-BP-010, R&D Systems, MN) (protein, UniProt P12644 293-408, looked up)
Bone morphogenetic protein 4: SPKHHSQRARKKNKNCRRHSLYVDFSDVGWNDWIVAPPGYQAFYCHGDCPFPLADHLNSTNHAIVQTLVNSVNSSIPKACCVPTELSAISMLYLDEYDKVVLKNYQEMVVEGCGCR
mesoderm marker BRY [1]: induce formation of mesoderm marker BRY

B2: DKK1: Wnt Inhibitor DKK-1 (Dikkopf-1) (protein, UniProt O94907 32-266, looked up)
Dickkopf-related protein 1: TLNSVLNSNAIKNLPPPLGGAAGHPGSAVSAAPGILYPGGNKYQTIDNYQPYPCAEDEECGTDEYCASPTRGGDAGVQICLACRKRRKRCMRHAMCCPGNYCKNGICVSSDQNHFRGEIEETITESFGNDHSTLDGYSRRTTLSSKMYHTKGQEGSVCLRSSDCASGLCCARHFWSKICKPVLKEGQVCTKHRRKGSHGLEIFQRCYCGEGLSCRIQKDHHQASNSSRLHTCQRH
expression level of differentiation markers (CXCR4, GATA4, HNF-3beta, SOX17, goosecoid) (H9 cells): dramatically decrease to levels similar to that of untreated cells

B3: Wnt1: WNT-1 (PeproTech, NJ, Catalogue#120-17) (protein, UniProt P04628 28-370, looked up)
Proto-oncogene Wnt-1: ANSSGRWWGIVNVASSTNLLTDSKSLQLVLEPSLQLLSRKQRRLIRQNPGILHSVSGGLQSAVRECKWQFRNRRWNCPTAPGPHLFGKIVNRGCRETAFIFAITSAGVTHSVARSCSEGSIESCTCDYRRRGPGGPDWHWGGCSDNIDFGRLFGREFVDSGEKGRDLRFLMNLHNNEAGRTTVFSEMRQECKCHGMSGSCTVRTCWMRLPTLRAVGDVLRDRFDGASRVLYGNRGSNRASRAELLRLEPEDPAHKPPSPHDLVYFEKSPNFCTYSGRLGTAGTAGRACNSSSPALDGCELLCCGRGHRTRTQRVTERCNCTFHWCCHVSCRNCTHTRVLHECL
definitive endoderm markers (Bry, CXCR4, GSC, SOX17, HNF-3B, and GATA-4) (H1P55 ES cells): significant up regulation
